From patent US20210292413A1

Assays:
[1] = molecular target: T1, human Siglec-3 on cells (moDC, PBMC of CHB patients) (human), P20138; assay: co-IP (IP: Siglec-3) from moDC, lane Mock; Western blot, densitometry [A]; settings: remark: other sources report otherwise
[2] = molecular target: T1, human Siglec-3 on cells (moDC, PBMC of …); assay: co-IP (IP: Siglec-3) from moDC treated with HBV (hHBV); Western blot, densitometry, fold of Mock [A]; settings: remark: other sources report otherwise
[3] = molecular target: T1, human Siglec-3 on cells (moDC, PBMC of …); assay: co-IP (IP: Siglec-3) from moDC treated with anti-Siglec-3 mAb 2B9; Western blot, densitometry, fold of Mock [A]; settings: remark: other sources report otherwise
[4] = molecular target: T1, human Siglec-3 on cells (moDC, PBMC of …); assay: co-IP (IP: Siglec-3) from moDC treated with anti-Siglec-3 mAb 10C8; Western blot, densitometry, fold of Mock [A]; settings: remark: other sources report otherwise
[5] = molecular target: T1, human Siglec-3 on cells (moDC, PBMC of …); assay: co-IP (IP: Siglec-3) from moDC, HBV +, 10C8 -; Western blot, densitometry, normalized to the untreated control [E]; settings: remark: other sources report otherwise
[6] = molecular target: T1, human Siglec-3 on cells (moDC, PBMC of …); assay: co-IP (IP: Siglec-3) from moDC, HBV -, 10C8 +; Western blot, densitometry, normalized to the untreated control [E]; settings: remark: other sources report otherwise
[7] = molecular target: T1, human Siglec-3 on cells (moDC, PBMC of …); assay: co-IP (IP: Siglec-3) from moDC, HBV -, 10C8 -; Western blot, densitometry, normalized to the untreated control [E]; settings: remark: other sources report otherwise
[8] = molecular target: T1, human Siglec-3 on cells (moDC, PBMC of …); assay: co-IP (IP: Siglec-3) from moDC incubated with hHBV for 0 min; Western blot, densitometry, normalized to the starting point [E]
[9] = molecular target: T1, human Siglec-3 on cells (moDC, PBMC of …); assay: co-IP (IP: Siglec-3) from moDC incubated with hHBV for 15 min; Western blot, densitometry, normalized to the starting point [E]
[10] = molecular target: T1, human Siglec-3 on cells (moDC, PBMC of …); assay: co-IP (IP: Siglec-3) from moDC incubated with hHBV for 30 min; Western blot, densitometry, normalized to the starting point [E]
[11] = molecular target: T1, human Siglec-3 on cells (moDC, PBMC of …); assay: co-IP (IP: Siglec-3) from moDC incubated with hHBV for 60 min; Western blot, densitometry, normalized to the starting point [E]
[12] = molecular target: T1, human Siglec-3 on cells (moDC, PBMC of …); assay: co-IP (IP: Siglec-3) from moDC incubated 30 mins with 0 copies/mL hHBV; Western blot, densitometry, normalized to the first lane [F]; settings: remark: other sources report otherwise
[13] = molecular target: T1, human Siglec-3 on cells (moDC, PBMC of …); assay: co-IP (IP: Siglec-3) from moDC incubated 30 mins with 10^8 copies/mL hHBV; Western blot, densitometry, normalized to the first lane [F]; settings: remark: other sources report otherwise
[14] = molecular target: T1, human Siglec-3 on cells (moDC, PBMC of …); assay: co-IP (IP: Siglec-3) from moDC incubated 30 mins with 10^9 copies/mL hHBV; Western blot, densitometry, normalized to the first lane [F]; settings: remark: other sources report otherwise
[15] = molecular target: T1, human Siglec-3 on cells (moDC, PBMC of …); assay: co-IP (IP: Siglec-3) from moDC incubated 30 mins with 3x10^8 copies/mL hHBV; Western blot, densitometry, normalized to the first lane [F]; settings: remark: other sources report otherwise
[16] = molecular target: T1, human Siglec-3 on cells (moDC, PBMC of …); assay: co-IP (IP: Siglec-3) from moDC, HBV +, 10C8 + (10C8 given 1 hour before HBV); Western blot, densitometry, normalized to the untreated control [E]; settings: remark: other sources report otherwise

T1 sequence (P20138 18-364): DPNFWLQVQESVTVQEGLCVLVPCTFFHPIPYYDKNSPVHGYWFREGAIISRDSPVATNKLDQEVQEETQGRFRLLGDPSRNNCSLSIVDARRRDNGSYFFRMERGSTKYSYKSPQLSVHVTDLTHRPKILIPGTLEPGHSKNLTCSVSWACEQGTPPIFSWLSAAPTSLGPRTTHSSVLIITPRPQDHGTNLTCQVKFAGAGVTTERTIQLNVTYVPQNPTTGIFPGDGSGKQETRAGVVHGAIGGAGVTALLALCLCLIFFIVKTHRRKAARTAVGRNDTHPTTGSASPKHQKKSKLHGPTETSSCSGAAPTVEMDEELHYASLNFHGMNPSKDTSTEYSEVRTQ

B1: SHP-2, Q06124 2-593 (protein, human, UniProt Q06124 2-593, looked up)
chain: TSRRWFHPNITGVEAENLLLTRGVDGSFLARPSKSNPGDFTLSVRRNGAVTHIKIQNTGDYYDLYGGEKFATLAELVQYYMEHHGQLKEKNGDVIELKYPLNCADPTSERWFHGHLSGKEAEKLLTEKGKHGSFLVRESQSHPGDFVLSVRTGDDKGESNDGKSKVTHVMIRCQELKYDVGGGERFDSLTDLVEHYKKNPMVETLGTVLQLKQPLNTTRINAAEIESRVRELSKLAETTDKVKQGFWEEFETLQQQECKLLYSRKEGQRQENKNKNRYKNILPFDHTRVVLHDGDPNEPVSDYINANIIMPEFETKCNNSKPKKSYIATQGCLQNTVNDFWRMVFQENSRVIVMTTKEVERGKSKCVKYWPDEYALKEYGVMRVRNVKESAAHDYTLRELKLSKVGQGNTERTVWQYHFRTWPDHGVPSDPGGVLDFLEEVHHKQESIMDAGPVVVHCSAGIGRTGTFIVIDILIDIIREKGVDCDIDVPKTIQMVRSQRSGMVQTEAQYRFIYMAVQHYIETLQRRIEEEQKSKRKGHEYTNIKYSLADQTSGDQSPLPPCTPTPPCAEMREDSARVYENVGLMQQQKSFR
fold change of SHP-2 co-precipitated with Siglec-3 [1]: 1 fold
fold change of SHP-2 co-precipitated with Siglec-3 [2]: 1.2 fold
fold change of SHP-2 co-precipitated with Siglec-3 [3]: 4.3 fold
fold change of SHP-2 co-precipitated with Siglec-3 [4]: 1.3 fold
fold change of SHP-2 co-precipitated with Siglec-3 [5]: 2.7 fold
fold change of SHP-2 co-precipitated with Siglec-3 [6]: 1.2 fold
fold change of SHP-2 co-precipitated with Siglec-3 [7]: 1 fold
fold change of SHP-2 co-precipitated with Siglec-3 [8]: 1 fold
fold change of SHP-2 co-precipitated with Siglec-3 [9]: 1.5 fold
fold change of SHP-2 co-precipitated with Siglec-3 [10]: 2.4 fold
fold change of SHP-2 co-precipitated with Siglec-3 [11]: 1.3 fold
fold change of SHP-2 co-precipitated with Siglec-3 [12]: 1 fold
fold change of SHP-2 co-precipitated with Siglec-3 [13]: 1.1 fold
fold change of SHP-2 co-precipitated with Siglec-3 [14]: 1.6 fold
fold change of SHP-2 co-precipitated with Siglec-3 [15]: 1.2 fold
fold change of SHP-2 co-precipitated with Siglec-3 [16]: 1.6 fold
